In patent US20240277831A1 (University of Washington, published 2024):

Assays:
[1] = target: RBD-12GS-I53-50A trimeric component (SARS-CoV-2)
Monomeric SARS-CoV-2 RBD = Monomeric SARS-CoV-2 RBD (SARS-CoV-2, UniProt P0DTC2 328-531)
[2] = target: RBD-8GS-I53-50A trimeric component (SARS-CoV-2)

B1: monomeric human ACE2 (hACE2) ectodomain (receptor)
chain: STIEEQAKTFLDKFNHEAEDLFYQSSLASWNYNTNITEENVQNMNNAGDKWSAFLKEQSTLAQMYPLQEIQNLTVKLQLQALQQNGSSVLSEDKSKRLNTILNTMSTIYSTGKVCNPDNPQECLLLEPGLNEIMANSLDYNERLWAWESWRSEVGKQLRPLYEEYVVLKNEMARANHYEDYGDYWRGDYEVNGVDGYDYSRGQLIEDVEHTFEEIKPLYEHLHAYVRAKLMNAYPSYISPIGCLPAHLLGDMWGRFWTNLYSLTVPFGQKPNIDVTDAMVDQAWDAQRIFKEAEKFFVSVGLPNMTQGFWENSMLTDPGNVQKAVCHPTAWDLGKGDFRILMCTKVTMDDFLTAHHEMGHIQYDMAYAAQPFLLRNGANEGFHEAVGEIMSLSAATPKHLKSIGLLSPDFQEDNETEINFLLKQALTIVGTLPFTYMLEKWRWMVFKGEIPKDQWMKKWWEMKREIVGVVEPVPHDETYCDPASLFHVSNDYSFIRYYTGTLYQFQFQEALCQAAKHEGPLHKCDISNSTEAGQKLFNMLRLGKSEPWTLALENVVGAKNMNVRPLLNYFEPLFTWLKDQNKNSFVGWSTDWSPYADPLVPR
Q: What does the source list for B1?
A: Kd [1]: 0.078 µM; koff [1]: 0.005 s⁻¹; kon [1]: 60000 M⁻¹ s⁻¹; Kd (Monomeric SARS-CoV-2 RBD): 0.069 µM; koff (Monomeric SARS-CoV-2 RBD): 0.005 s⁻¹; kon (Monomeric SARS-CoV-2 RBD): 70000 M⁻¹ s⁻¹; Kd [2]: 0.07 µM; koff [2]: 0.004 s⁻¹; kon [2]: 60000 M⁻¹ s⁻¹
